The text below walks through data of patent US20090305399A1.

Where two headings read alike, the source gives them in different places. Ends that are not written are not given here.

Holding throughout (assay): cell-based or functional assay
Test [1] concerns the target human Kv1.3 channel (human) (UniProt P22001).
Test [2] concerns the target human Kv1.1 channel (human) (UniProt Q09470).
Test [3] addresses human Kv1.3 channel (human) (UniProt P22001). The source holds these as a separate data set.

human Kv1.3 channel (human), sequence (P22001 whole entry): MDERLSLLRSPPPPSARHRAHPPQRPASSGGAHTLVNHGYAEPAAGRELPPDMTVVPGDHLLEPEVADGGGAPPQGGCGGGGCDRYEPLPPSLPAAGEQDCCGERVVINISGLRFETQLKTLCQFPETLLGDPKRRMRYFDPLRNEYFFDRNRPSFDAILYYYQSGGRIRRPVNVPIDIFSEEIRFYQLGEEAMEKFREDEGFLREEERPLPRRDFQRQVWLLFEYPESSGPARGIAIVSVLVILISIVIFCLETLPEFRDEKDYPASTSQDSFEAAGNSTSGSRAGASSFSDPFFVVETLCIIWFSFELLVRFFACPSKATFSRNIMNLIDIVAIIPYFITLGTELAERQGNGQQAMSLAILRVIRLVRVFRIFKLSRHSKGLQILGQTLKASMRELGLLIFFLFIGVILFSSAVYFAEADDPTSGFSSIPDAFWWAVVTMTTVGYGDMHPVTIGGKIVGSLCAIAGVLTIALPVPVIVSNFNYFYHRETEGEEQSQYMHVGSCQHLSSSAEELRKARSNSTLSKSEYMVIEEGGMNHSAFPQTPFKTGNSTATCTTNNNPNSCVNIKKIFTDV
human Kv1.1 channel (human), sequence (Q09470 whole entry): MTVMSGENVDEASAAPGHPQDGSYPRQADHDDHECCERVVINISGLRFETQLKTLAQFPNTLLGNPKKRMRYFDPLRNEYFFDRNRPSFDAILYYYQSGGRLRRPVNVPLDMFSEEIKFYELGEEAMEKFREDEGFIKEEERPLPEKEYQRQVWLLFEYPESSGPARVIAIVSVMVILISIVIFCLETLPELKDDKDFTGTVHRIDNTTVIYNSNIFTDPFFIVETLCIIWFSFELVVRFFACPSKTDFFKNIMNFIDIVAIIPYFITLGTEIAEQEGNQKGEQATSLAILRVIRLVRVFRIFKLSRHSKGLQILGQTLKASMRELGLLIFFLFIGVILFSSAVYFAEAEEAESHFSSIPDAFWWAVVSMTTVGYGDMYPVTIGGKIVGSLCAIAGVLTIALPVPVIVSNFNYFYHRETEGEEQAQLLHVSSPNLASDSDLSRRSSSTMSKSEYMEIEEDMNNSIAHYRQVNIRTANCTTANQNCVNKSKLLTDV

In test [1], 20k PEG-OSK1[Ala29, 1Nal34] (peptide) gave a WB/IFNg IC50 (human whole blood IFNg response) of 0.081 nM and a WB/IL-2 IC50 (human whole blood IL-2 response) of 0.049 nM.
The corresponding values for 20k PEG-ShK (peptide) are 0.065 nM and 0.046 nM.
In test [1], “CHO-derived Fc-L10-ShK[2-35] (Fc fusion)” returned an IC50 of block of outward potassium current, whole cell patch clamp of 0.115 nM.
E. coli-derived Fc-L-OSK1 (Fc fusion) showed a Kv1.3 IC50 by WCVC (nM), HEK293/Kv1.3 cells in test [1] of 3.2 nM.
In turn, “E. coli-derived Fc-L-ShK[1-35] (Fc fusion)” gave a Kv1.3 IC50 by WCVC (nM), HEK293/Kv1.3 cells in test [1] of 1.4 nM.
Turning to “E. coli-derived Fc-L-ShK[2-35] (Fc fusion)”, in test [1], the Kv1.3 IC50 by IWQ (nM), CHO/Kv1.3 cells was found to be 2.8 nM and the Kv1.3 IC50 by WCVC (nM), HEK293/Kv1.3 cells was determined as 1.3 nM.
Take “E. coli-derived ShK[2-35]-L-Fc (Fc fusion)”: the Kv1.3 IC50 by IWQ (nM), CHO/Kv1.3 cells in test [1] was found to be 4.9 nM.
The same measure, in the same setting: then “E. coli-derived Shk[1-35]-L-Fc (Fc fusion)”, with 2.4 nM.
In turn, Fc-L5-ShK[2-35] (Fc fusion) gave an IC50 of block of outward potassium current, whole cell patch clamp in test [1] of 0.1 nM.
With Fc-L25-ShK[2-35] (Fc fusion), the IC50, whole cell patch clamp on HEK293/Kv1.3 cells in test [1] worked out at 0.15 nM.
In test [1], GGGGS-Osk1 (peptide) registered a WB/IFNg IC50 (human whole blood IFNg response) of 2.2 nM and a WB/IL-2 IC50 (human whole blood IL-2 response) of 1.36 nM.
In test [2], OSK1 (wild-type) (peptide) gave a Kv1.1 IC50, whole cell patch clamp ePhys of 0.202 nM. Further, in test [1], the Kv1.3 IC50, whole cell patch clamp ePhys turned out to be 0.039 nM and the Kv1.3 Selectivity (=Kv1.1/Kv.3 IC50) worked out at 5 fold.
For OSK1 analogue E16K, K20D (peptide), in test [1], the WB/IFNg IC50 (human whole blood IFNg response) worked out at 1.32 nM and the WB/IL-2 IC50 (human whole blood IL-2 response) was 1.58 nM.
On to PEG-Fc-L10-OSK1, Pool # 2 (Fc fusion), for which, in test [1], the IC50 Sustained stood at 0.332 nM.
Still for that read-out and setting: under PEG-Fc-L10-OSK1, Pool # 3 (Fc fusion) stands 0.256 nM; under “PEG-Fc-L10-SHK(2-35), Pool # 2 (Fc fusion)”, 0.158 nM; under “PEG-Fc-L10-SHK(2-35), Pool # 3 (Fc fusion)”, 0.175 nM.
Turning to synthetic OSK1 toxin peptide, the IC50 of block of outward potassium current, whole cell patch clamp in test [1] came to 0.039 nM.
With SCIDTIPKSRCTAFQCKHSMKYRLSFCRKTCGTC (not fully specified; ends and bridges not checked) [synthetic ShK[2-35]], the IC50 of block of outward potassium current, whole cell patch clamp in test [3] turned out to be 0.049 nM.
